The chains are these.
B1: Complement factor H (Homo sapiens), P08603 (parent)
chain: MRLLAKIICLMLWAICVAEDCNELPPRRNTEILTGSWSDQTYPEGTQAIYKCRPGYRSLGNVIMVCRKGEWVALNPLRKCQKRPCGHPGDTPFGTFTLTGGNVFEYGVKAVYTCNEGYQLLGEINYRECDTDGWTNDIPICEVVKCLPVTAPENGKIVSSAMEPDREYHFGQAVRFVCNSGYKIEGDEEMHCSDDGFWSKEKPKCVEISCKSPDVINGSPISQKIIYKENERFQYKCNMGYEYSERGDAVCTESGWRPLPSCEEKSCDNPYIPNGDYSPLRIKHRTGDEITYQCRNGFYPATRGNTAKCTSTGWIPAPRCTLKPCDYPDIKHGGLYHENMRRPYFPVAVGKYYSYYCDEHFETPSGSYWDHIHCTQDGWSPAVPCLRKCYFPYLENGYNQNYGRKFVQGKSIDVACHPGYALPKAQTTVTCMENGWSPTPRCIRVKTCSKSSIDIENGFISESQYTYALKEKAKYQCKLGYVTADGETSGSITCGKDGWSAQPTCIKSCDIPVFMNARTKNDFTWFKLNDTLDYECHDGYESNTGSTTGSIVCGYNGWSDLPICYERECELPKIDVHLVPDRKKDQYKVGEVLKFSCKPGFTIVGPNSVQCYHFGLSPDLPICKEQVQSCGPPPELLNGNVKEKTKEEYGHSEVVEYYCNPRFLMKGPNKIQCVDGEWTTLPVCIVEESTCGDIPELEHGWAQLSSPPYYYGDSVEFNCSESFTMIGHRSITCIHGVWTQLPQCVAIDKLKKCKSSNLIILEEHLKNKKEFDHNSNIRYRCRGKEGWIHTVCINGRWDPEVNCSMAQIQLCPPPPQIPNSHNMTTTLNYRDGEKVSVLCQENYLIQEGEEITCKDGRWQSIPLCVEKIPCSQPPQIEHGTINSSRSSQESYAHGTKLSYTCEGGFRISEENETTCYMGKWSSPPQCEGLPCKSPPEISHGVVAHMSDSYQYGEEVTYKCFEGFGIDGPAIAKCLGEKWSHPPSCIKTDCLSLPSFENAIPMGEKKDVYKAGEQVTYTCATYYKMDGASNVTCINSRWTGRPTCRDTSCVNPPTVQNAYIVSRQMSKYPSGERVRYQCRSPYEMFGDEEVMCLNGNWTEPPQCKDSTGKCGPPPPIDNGDITSFPLSVYAPASSVEYQCQNLYQLEGNKRITCRNGQWSEPPKCLHPCVISREIMENYNIALRWTAKQKLYSRTGESVEFVCKRGYRLSSRSHTLRTTCWDGKLEYPTCAKR
partner: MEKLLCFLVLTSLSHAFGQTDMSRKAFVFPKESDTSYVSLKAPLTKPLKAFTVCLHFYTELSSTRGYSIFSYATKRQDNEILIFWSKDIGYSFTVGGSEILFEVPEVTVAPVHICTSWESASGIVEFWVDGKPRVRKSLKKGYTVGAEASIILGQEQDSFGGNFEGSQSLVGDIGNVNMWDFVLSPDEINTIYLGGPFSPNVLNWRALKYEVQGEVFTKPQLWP

Data on one variant can be found in IntAct's records for PubMed 17339482.

The variants in the assay derive from B1. To be noted: with crp_human CRP.
Take Y402H: the “effect of a mutation on the interaction” value is given as “decreasing interaction strength”.
